According to paper PMC5778036:

Biological target: CCR5 expressed on the surface of pancreatic cancer cells (human (endogenous in AsPC-1, BxPC-3, MIA PaCa-2)) (UniProt P51681)
UniProt P51681, sequence (P51681 whole entry): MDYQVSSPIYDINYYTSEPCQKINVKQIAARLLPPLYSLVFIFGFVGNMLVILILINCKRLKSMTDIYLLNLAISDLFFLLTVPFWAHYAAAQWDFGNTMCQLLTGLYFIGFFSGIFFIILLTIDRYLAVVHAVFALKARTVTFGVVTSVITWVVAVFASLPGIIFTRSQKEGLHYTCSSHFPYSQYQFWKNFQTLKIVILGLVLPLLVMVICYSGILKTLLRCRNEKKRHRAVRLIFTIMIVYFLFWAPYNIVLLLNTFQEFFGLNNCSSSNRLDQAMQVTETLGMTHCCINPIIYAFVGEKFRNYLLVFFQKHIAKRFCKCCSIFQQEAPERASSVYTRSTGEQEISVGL

Question: Which results are given for “CCL5 (CC chemokine ligand 5) recombinant protein (from UniProt P13501 24-91)”?
Answer: CCR5 mRNA (qRT-PCR) in AsPC-1 cells in presence of CCL5, fold against untreated; decreased by maraviroc: 11 fold; CCR5 mRNA (qRT-PCR) in BxPC-3 cells in presence of CCL5, fold against untreated; decreased by maraviroc: 7 fold; CCR5 mRNA (qRT-PCR) in MIA PaCa-2 cells in presence of CCL5, fold against untreated; decreased by maraviroc: 4 fold
